The values that follow come from patent publication US20260083641.

This series relates to collagen.

As for “N-terminally truncated recombinant collagenase G (ColG) from Clostridium histolyticum, residues Tyr119-Lys1118, with N-terminal His-tag and TEV cleavage site”, the “fluorescence intensity, in vitro collagenase activity assay” value is “where all the reaction components were included (two most right bars) significantly higher fluorescence was detected”.

In the case of “commercial collagenase (C.COL) (Sigma-Aldrich)”, the “collagenase activity relative to COLG” value is listed as “the activity of C.COL was significantly higher, increase of about 30%-40%, than that of COLG” and the “fluorescence intensity, in vitro collagenase activity assay” value is recorded as “where all the reaction components were included (two most right bars) significantly higher fluorescence was detected”.
